Blank lines part the entries; values can stand above or below the binder they belong to. Ends that are not written are not given here.
Columns and labels:
[1] = target: T1, PTHR16E (human, UniProt Q03431 27-593); assay: flow cytometry, AlexaFluor647-VHH titrated on HEK293 cells expressing the receptor (MFI)
T1 construct: Stably expressed on HEK293 cells; also called hPTHR16E
T1 chain: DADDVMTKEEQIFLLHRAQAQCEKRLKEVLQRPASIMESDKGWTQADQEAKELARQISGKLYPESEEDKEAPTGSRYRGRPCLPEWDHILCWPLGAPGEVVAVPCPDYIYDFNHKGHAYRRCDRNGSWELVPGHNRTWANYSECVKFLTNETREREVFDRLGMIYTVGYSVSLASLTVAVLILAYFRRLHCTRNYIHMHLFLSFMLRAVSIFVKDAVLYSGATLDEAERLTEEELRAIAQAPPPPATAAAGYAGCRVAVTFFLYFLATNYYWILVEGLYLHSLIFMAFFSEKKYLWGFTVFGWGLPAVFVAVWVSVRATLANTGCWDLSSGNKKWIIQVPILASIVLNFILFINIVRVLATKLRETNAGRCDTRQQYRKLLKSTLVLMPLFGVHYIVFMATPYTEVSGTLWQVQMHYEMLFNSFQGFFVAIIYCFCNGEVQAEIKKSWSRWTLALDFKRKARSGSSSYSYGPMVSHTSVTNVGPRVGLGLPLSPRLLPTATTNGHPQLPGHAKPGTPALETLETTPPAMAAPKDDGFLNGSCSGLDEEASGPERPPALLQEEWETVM
Protocol: (§1) Suspensions of cells in PBS were stained for 1 hour on ice in the presence of indicated concentrations of VHH probes functionalized with Alexafluor647. Cells were pelleted by centrifugation and washed with PBS prior to analysis by flow cytometry (BD Accuri C6). Gating was performed on forward scatter/side scatter profiles to analyze intact cells. Data was analyzed using FlowJo version 7.6. The median fluorescent intensity (MFI) of stained cells was used to generate VHH binding dose response curves (FIG. 20).
(§2) It was determined whether VHHs bound to their intended targets on live cells by flow cytometry (FIG. 14A). […] To estimate the affinity of the selected VHH for their targets flow cytometry was used to quantify binding.

[2] = target: T2, human PTHR2 (human, UniProt P49190 25-550); assay: flow cytometry, AlexaFluor647-VHH on stably transfected HEK293 cells
T2 construct: whole, on cells; Stably expressed on HEK293 cells; also called hPTHR2
Protocol: (§3) FIGS. 14A-14B: Binding of VHHs to HEK293 cell lines stably transfected with PTHRs. (FIG. 14A) Analysis of VHH binding to PTHR1, PTHR2 and variants by flow cytometry. HEK293 cell lines in suspension were incubated on ice with 100 nM VHH sortagged with Alexafluor647, pelleted by centrifugation, washed and analyzed. Data for PTHR1-GFP is found in FIGS. 17A to 17C. (FIG. 14B) Analysis of VHH binding with microscopy. […] Following staining, cells were washed and treated with fixative in preparation for image acquisition either immediately after staining (0 m) or following a 15-minute incubation in medium at room temperature (15 m).
as §1
(§4) It was determined whether VHHs bound to their intended targets on live cells by flow cytometry (FIG. 14A).

[3] = target: PTHR1YFPΔECD (human); assay: cell-based or functional assay
[4] = target: T3, rat PTHR1 (rat, UniProt P25961 27-591); assay: cell-based or functional assay
T3 sequence (looked up): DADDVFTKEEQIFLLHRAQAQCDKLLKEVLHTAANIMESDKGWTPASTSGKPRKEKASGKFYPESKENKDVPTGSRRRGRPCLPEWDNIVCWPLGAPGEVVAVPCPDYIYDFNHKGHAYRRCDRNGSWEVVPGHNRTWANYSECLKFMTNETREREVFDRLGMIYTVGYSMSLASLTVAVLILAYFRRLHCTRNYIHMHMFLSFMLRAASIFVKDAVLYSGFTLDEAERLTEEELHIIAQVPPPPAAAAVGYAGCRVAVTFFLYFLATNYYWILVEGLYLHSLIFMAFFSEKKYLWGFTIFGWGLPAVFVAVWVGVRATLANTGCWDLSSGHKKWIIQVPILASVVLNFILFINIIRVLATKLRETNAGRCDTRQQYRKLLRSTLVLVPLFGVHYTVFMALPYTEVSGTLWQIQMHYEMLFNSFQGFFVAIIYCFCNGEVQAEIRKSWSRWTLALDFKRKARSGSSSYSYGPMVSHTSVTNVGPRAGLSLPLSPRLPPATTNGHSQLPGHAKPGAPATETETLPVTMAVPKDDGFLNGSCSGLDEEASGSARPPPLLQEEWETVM

[5] = target: PTHR1YFPΔECD (human); assay: cell-based or functional assay; remark: listed apart in the source
[6] = target: T3, rat PTHR1; assay: flow cytometry, AlexaFluor647-VHH titrated on HEK293 cells expressing the receptor (MFI); plateau estimated
Protocol: as §1, §2

[7] = target: T4, Human PTHR1 WT (human, UniProt Q03431 27-593); assay: as above
T4 construct: Stably expressed on HEK293 cells (GP2.3); also called hPTHR1; wild-type PTHR1
T4 sequence: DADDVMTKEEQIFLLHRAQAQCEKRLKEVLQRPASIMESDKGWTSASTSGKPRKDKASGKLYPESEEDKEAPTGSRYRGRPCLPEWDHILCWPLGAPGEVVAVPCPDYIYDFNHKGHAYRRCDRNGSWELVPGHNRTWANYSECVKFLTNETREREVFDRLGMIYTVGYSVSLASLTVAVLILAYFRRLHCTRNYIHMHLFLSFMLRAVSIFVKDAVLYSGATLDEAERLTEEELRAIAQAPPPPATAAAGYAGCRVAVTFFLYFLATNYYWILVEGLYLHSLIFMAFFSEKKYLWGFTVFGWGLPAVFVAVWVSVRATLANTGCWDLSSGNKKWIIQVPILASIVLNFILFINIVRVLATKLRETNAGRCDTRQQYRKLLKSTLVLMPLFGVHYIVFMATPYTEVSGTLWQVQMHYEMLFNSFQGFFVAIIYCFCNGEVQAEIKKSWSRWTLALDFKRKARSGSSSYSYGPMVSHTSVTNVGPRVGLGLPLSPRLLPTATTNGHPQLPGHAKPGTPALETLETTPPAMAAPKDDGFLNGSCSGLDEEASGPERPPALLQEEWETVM
Protocol: as §1, §2

[8] = target: T5, PTHR1GFP (human, UniProt Q03431 95-593); assay: as above
T5 construct: Human PTHR1 with the pH-sensitive GFP variant pHluorin2 inserted in the exon 2 portion; Stably expressed on HEK293 cells (GPG10); also called hPTHR1-GFP; hPTHR1GFP
Protocol: as §1, §2

[9] = target: T1, PTHR16E; assay: as above
Protocol: as §1, §2

[10] = target: T6, PTHR1YFPΔECD (human); assay: flow cytometry, AlexaFluor647-VHH on stably transfected HEK293 cells
T6 construct: PTHR1 in which YFP replaces the entire extracellular domain; Stably expressed on HEK293 cells (GD5); also called Human PTHR1-delNT-YFP; hPTHR1YFPΔECD
Protocol: as §3, §1, §4

T2 sequence (P49190 25-550): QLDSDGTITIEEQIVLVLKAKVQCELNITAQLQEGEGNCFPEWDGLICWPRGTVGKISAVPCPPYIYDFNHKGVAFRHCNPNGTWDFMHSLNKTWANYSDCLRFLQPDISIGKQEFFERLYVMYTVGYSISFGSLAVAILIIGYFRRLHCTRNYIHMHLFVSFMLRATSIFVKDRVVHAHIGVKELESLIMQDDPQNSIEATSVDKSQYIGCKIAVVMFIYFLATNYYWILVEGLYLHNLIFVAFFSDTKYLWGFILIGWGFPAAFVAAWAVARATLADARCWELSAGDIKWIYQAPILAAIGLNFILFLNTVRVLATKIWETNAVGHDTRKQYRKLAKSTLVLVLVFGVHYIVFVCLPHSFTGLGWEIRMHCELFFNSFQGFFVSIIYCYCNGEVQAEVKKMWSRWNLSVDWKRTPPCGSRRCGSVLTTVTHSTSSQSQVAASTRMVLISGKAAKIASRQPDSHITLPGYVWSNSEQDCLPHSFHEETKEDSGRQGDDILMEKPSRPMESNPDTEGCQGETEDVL

EC50 [1]: < 10 nM
binding result [2]: no binding (tested: 100 nM)
B1: VHH6E (VHH)
VHH: QVQLQESGGGLVQPGGSLRLSCAASGFVFENSAMAWYRQAPGKERELIAVIGTTFIKLAESVKGRFTISRDNAKSTVYLQMNNLKPEDTAVYYCSKSGAYWGQGTQVTVSS
modifications: C-terminus sortagged to a GGG-probe (AlexaFluor647, tetramethylrhodamine or biotin-azide)
notes: It recognises a 14-mer from UBC6e; also called VHH05; VHH005

binding result [2]: no binding (tested: 100 nM)
B2: VHHGFP (VHH)
VHH: QVQLQESGGALVQPGGSLRLSCAASGFPVNRYSMRWYRQAPGKEREWVAGMSSAGDRSSYEDSVKGRFTISRDDARNTVYLQMNSLKPEDTAVYYCNVNVGFEYWGQGTQVTVSS
modifications: C-terminus sortagged to a GGG-probe (AlexaFluor647 or biotin-azide)
notes: also called VHH Enhancer; VHH-enhancer

cAMP induction EC50 [3]: 689 nM
cAMP induction Max (normalized) [3]: 1 normalized
cAMP induction Max (normalized) [4]: 1 normalized
Stimulation of receptor (cAMP), EC50 [5]: 689 nM
Binder: SVSEIQLMHNLGKHLNSMERVEWLRKKLQDVHNF-NH2 [PTH(1-34)]

EC50 [6]: 100 to 200 nM
EC50 [7]: 100 to 200 nM
EC50 [8]: 100 to 200 nM
EC50 [9]: 100 to 200 nM
binding result [2]: no binding (tested: 100 nM)
binding result [10]: no binding (tested: 100 nM)
B3: VHHPTHR (VHH)
VHH: EVQLVESGGGLVQAGGSLRLSCAASGNIFANNIMGWYRQPPGKEREFVAHVSHDGDSMYAVSVKGRFAISRKDATNLYLQMNSLKPEDTAIYFCRLLNIPTQGRMEGFWGQGTQVTVSS
modifications: C-terminus sortagged to a GGG-probe (AlexaFluor647, tetramethylrhodamine or biotin-azide)
notes: The label depends on the assay; also called VHH22A3; 22A3

From patent US20200316217A1 (CHILDREN S MEDICAL CENTER, published 2020)
